Source: article doi:10.1101/2024.11.03.621760 (bioRxiv, 2024)

B1: nHALC3_919_cb3 (designed binder)
chain: MSGSPVKRFVREVLEEAEEAYEKGDRRQFEELLWLAEWAARDANDEELEEEIREFEKEVKGSGSEELLEELRELLERLQELLELIEQGKITPEQLREAIALLIEVLQILYEALRELAEQLQRLREELGGS
B2: cHALC3_919_cb3 (designed binder)
chain: MSGSEELLEELRELLERLQELLELIEQGKITPEQLREAIALLIEVLQILYEALRELAEQLQRLREELGGSGSPVKRFVREVLEEAEEAYEKGDRRQFEELLWLAEWAARDANDEELEEEIREFEKEVKGS

Tests used:
[1] = biological target: prefusion MERS-CoV EMC/2012 S ectodomain trimer (MERS-CoV-2P S) (MERS-CoV EMC/2012)
[2] = biological target: prefusion MERS-CoV EMC/2012 S ectodomain trimer (MERS-CoV-2P S) (MERS-CoV EMC/2012); test: SPR

Row | Binder | Table S6, nHALC3 919: neutralisation IC50, EMC/2012 S VSV pseudovirus, exp 1 [1] | Table S6, nHALC3 919: neutralisation IC50, EMC/2012 S VSV pseudovirus, exp 2 [1] | Kd [2] | koff [2] | kon [2] | Table S6, cHALC3 919: neutralisation IC50, EMC/2012 S VSV pseudovirus, exp 1 [1] | Table S6, cHALC3 919: neutralisation IC50, EMC/2012 S VSV pseudovirus, exp 2 [1]
1 | B1 | 5.9 nM | 1.7 nM | 0.11 nM | 6e-05 s⁻¹ | 560000 M⁻¹ s⁻¹ | – | –
2 | B2 | – | – | – | – | – | 15.3 nM | 5 nM
